Assay results taken from article PMC9413444 (ACS Nano, 2022).

Tested on: intracranial glioblastoma GL261 in BL/6 mice
Conditions: GL261 tumor-bearing BL/6 mice; IV; 2 h post-injection (Figure 2B)

poly(β-L-malic acid)-trileucine polymer [P/LLL(40%)]
increase of fluorescence in tumor tissue from dose 0.25X to dose 1.0X: increases proportionally with the dose administered
